The assay deals with T1, KIR2DL4 receptor (on NK cells or on cells transfected with 2DL4) (human, UniProt Q99706 22-377).
T1 construct: whole, on cells; Endogenous on human NK cells and NK cell lines (NK3.3, NKL, NK92) or on transfected cells; also called CD158d
As to the kind of experiment: transfection experiments in Ba/F3 and 293T cells.

T1 sequence (Q99706 22-377): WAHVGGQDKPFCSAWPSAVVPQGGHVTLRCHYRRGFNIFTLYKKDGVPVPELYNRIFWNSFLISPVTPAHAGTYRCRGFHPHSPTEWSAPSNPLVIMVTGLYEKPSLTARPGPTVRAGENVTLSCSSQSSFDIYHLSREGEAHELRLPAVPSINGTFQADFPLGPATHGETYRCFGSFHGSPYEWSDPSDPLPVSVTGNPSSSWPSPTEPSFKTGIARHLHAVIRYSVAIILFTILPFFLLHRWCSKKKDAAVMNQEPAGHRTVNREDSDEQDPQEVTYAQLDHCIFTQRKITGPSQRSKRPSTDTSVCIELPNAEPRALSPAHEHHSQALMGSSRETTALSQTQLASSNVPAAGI

B1: DAP12 (other, UniProt O43914 22-113, looked up)
chain: LRPVQAQAQSDCSCSTVSPGVLAGIVMGDLVLTVLIALAVYFLGRLVPRGRGAAEAATRKQRITETESPYQELQGQRSDVYSDLNTQRPYYK
notes: whole, on cells; also called DAP12 adaptor protein
Turning to B1, the binding result was “no binding”.

B2: DAP10 (other, UniProt Q9UBK5 19-93, looked up)
chain: QTTPGERSSLPAFYPGTSGSCSGCGSLSLPLLAGLVAADAVASLLIVGAVFLCARPRRSPAQEDGKVYINMPGRG
notes: whole, on cells
Regarding B2, the binding result is listed as “no binding”.

B3: FcRγ chain (other, UniProt P30273 19-86, looked up)
chain: LGEPQLCYILDAILFLYGIVLTLLYCRLKIQVRKAAITSYEKSDGVYTGLSTRNQETYETLKHEKPPQ
notes: whole, on cells
As to B3, the binding result is “no binding”.

Source of the values: patent US20030232051A1 (GOVERNMENT OF THE UNITED STATES OF AMERICA AS REPRESENTED …, published 2003).
